Measurements as given in US20210130436A1.
Values joined by “and” are separate entries in the source; they are usually repeats but may differ in a detail not shown here. Equal values may be shown once.

Legend:
human CTLA-4 (human) [1] = target: human CTLA-4 (human) (UniProt P16410); experiment: flow cytometry, CHO cells stably expressing CTLA4
CD96 = target: T1, CD96 (UniProt P40200); experiment: flow cytometry on cells expressing the target, 20 nM Fc fusion
T1 sequence (looked up): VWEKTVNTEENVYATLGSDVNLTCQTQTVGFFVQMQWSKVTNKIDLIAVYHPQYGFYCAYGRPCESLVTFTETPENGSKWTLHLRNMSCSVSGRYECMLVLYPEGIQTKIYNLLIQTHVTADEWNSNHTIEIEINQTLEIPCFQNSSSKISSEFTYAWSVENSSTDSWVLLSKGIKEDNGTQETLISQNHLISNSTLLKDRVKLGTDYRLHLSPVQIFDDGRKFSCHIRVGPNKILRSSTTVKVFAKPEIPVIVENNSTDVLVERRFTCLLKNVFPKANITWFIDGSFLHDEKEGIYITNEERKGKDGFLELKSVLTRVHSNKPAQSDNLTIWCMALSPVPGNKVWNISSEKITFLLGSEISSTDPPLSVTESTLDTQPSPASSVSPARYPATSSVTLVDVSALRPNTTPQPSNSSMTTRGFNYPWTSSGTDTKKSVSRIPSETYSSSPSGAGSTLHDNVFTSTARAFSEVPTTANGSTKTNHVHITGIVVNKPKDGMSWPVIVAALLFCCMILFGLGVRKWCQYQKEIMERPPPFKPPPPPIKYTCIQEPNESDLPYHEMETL

CD112R [2] = target: CD112R (UniProt Q6DKI7); experiment: flow cytometry, protein at 25 nM on cells expressing CD112R
Target sequence in this assay (Q6DKI7 41-326 limits assumed, form in doubt): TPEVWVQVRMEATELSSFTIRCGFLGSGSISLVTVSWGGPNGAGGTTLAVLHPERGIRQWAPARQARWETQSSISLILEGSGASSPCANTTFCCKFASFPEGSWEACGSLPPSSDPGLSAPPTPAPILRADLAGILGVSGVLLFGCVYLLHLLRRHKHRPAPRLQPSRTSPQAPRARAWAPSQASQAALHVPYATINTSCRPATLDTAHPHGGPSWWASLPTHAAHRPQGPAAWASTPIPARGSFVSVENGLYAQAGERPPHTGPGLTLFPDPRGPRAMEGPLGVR

CD226 = CD226 (UniProt Q15762); experiment: flow cytometry, protein at 25 nM on cells expressing CD226
[3] = target: CD80 expressed on cells (human) (UniProt P33681); experiment: flow cytometry; 20 nM protein on cells expressing CD80
[4] = target: PD-1 expressed on cells (Homo sapiens (Human)) (UniProt Q15116); experiment: flow cytometry; 20 nM protein on cells expressing PD-1
[5] = target: human CTLA4, full-length, expressed on transfected HEK293 (Expi293F) cells (human) (UniProt P16410); experiment: flow cytometry, Fc control on HEK293 cells transfected with full-length human CTLA4
[6] = target: human PD-L1, full-length, expressed on transfected HEK293 (Expi293F) cells (human) (UniProt Q9NZQ7); experiment: flow cytometry, Fc control on HEK293 cells transfected with full-length human PD-L1
[7] = target: human CD28, full-length, expressed on transfected HEK293 (Expi293F) cells (human) (UniProt P10747); experiment: flow cytometry, Fc control on HEK293 cells transfected with full-length human CD28
PD-L1 (human) [8] = target: PD-L1 (human) (UniProt Q9NZQ7); experiment: cell-based or functional assay
PD-L1 (human) [9] = target: PD-L1 (human) (UniProt Q9NZQ7); experiment: flow cytometry, CHO cells stably expressing huPD-L1, 33.3 nM, PE anti-human Fc
PD-L1 (human) [10] = target: PD-L1 (human) (UniProt Q9NZQ7); experiment: flow cytometry, CHO cells stably expressing PD-L1
TIGIT [11] = target: T2, TIGIT (UniProt Q495A1); experiment: flow cytometry, MFI ratio to wildtype CD155 ECD-Fc, TIGIT cells
T2 sequence (looked up): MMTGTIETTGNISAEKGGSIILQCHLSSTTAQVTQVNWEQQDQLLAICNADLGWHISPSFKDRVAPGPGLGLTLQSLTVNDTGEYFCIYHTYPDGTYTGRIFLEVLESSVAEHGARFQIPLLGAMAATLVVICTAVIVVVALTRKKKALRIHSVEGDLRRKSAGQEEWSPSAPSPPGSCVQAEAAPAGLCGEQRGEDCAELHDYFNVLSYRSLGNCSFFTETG

TIGIT [12] = target: T2, TIGIT; experiment: flow cytometry on cells expressing TIGIT, Fc fusion at 100 nM
CD28 (human) = CD28 (human) (UniProt P10747); experiment: flow cytometry, Jurkat/IL2 reporter cells (endogenous CD28), 33.3 nM, PE anti-human Fc
human CTLA-4 (human) [13] = target: human CTLA-4 (human) (UniProt P16410); experiment: flow cytometry, CHO cells stably expressing huCTLA4, 33.3 nM, PE anti-human Fc
[14] = target: human CTLA4, full-length, expressed on transfected HEK293 (Expi293F) cells (human) (UniProt P16410); experiment: flow cytometry, Fc fusion on HEK293 cells transfected with full-length human CTLA4
[15] = target: human CTLA-4, full-length, on transduced CHO cells (human) (UniProt P16410); experiment: flow cytometry, CHO cells expressing huCTLA4, PE anti-human Fc
CD112R [16] = target: CD112R (UniProt Q6DKI7); experiment: flow cytometry on CD112R-expressing cells
Target sequence in this assay (Q6DKI7 41-326 limits assumed): as the sequence (Q6DKI7 41-326 limits assumed, form in doubt) above

[17] = target: PD-1 expressed on cells (Homo sapiens (Human)) (UniProt Q15116); experiment: flow cytometry; 20 nM Fc fusion on cells expressing PD-1
PD-L1 (human) [18] = target: PD-L1 (human) (UniProt Q9NZQ7); experiment: flow cytometry on CHO cells stably expressing PD-L1

Chain of human CTLA-4 (human) (P16410 36-223): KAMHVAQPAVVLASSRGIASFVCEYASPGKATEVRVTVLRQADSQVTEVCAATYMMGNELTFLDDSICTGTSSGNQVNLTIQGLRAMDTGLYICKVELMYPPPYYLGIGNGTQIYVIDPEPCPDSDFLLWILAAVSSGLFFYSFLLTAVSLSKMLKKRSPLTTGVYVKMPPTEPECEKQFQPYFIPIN
Chain of human CTLA4, full-length, expressed on transfected HEK293 (Expi293F) cells (human) (P16410 36-223): as above
Chain of PD-1 expressed on cells (Homo sapiens (Human)) (Q15116 21-288): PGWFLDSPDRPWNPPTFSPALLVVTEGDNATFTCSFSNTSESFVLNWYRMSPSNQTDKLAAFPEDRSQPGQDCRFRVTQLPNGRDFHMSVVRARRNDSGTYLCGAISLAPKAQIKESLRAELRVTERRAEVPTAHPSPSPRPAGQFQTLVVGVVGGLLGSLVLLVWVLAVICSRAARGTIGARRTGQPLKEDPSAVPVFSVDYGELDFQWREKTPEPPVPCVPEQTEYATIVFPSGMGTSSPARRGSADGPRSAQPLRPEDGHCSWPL
Chain of CD226 (Q15762 19-336): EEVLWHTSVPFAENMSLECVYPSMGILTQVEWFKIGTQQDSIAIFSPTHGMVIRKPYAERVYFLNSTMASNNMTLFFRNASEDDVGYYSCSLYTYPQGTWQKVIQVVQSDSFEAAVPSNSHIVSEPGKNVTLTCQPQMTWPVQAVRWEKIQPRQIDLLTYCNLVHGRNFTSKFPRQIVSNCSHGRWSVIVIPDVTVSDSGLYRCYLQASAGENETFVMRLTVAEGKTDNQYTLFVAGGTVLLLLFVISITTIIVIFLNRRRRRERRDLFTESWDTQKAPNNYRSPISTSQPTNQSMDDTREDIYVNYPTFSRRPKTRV
Chain of human CTLA-4, full-length, on transduced CHO cells (human) (P16410 36-223): as the sequence (P16410 36-223) above

Q: With “CD80 IgV-Fc T13R/Q33R/E35D/M38I/M47L/V68M (from UniProt P33681 35-141) (Fc fusion)” as the substance, how does the MFI at 33.3 nM (human CTLA-4 (human) [1]) read?
A: The MFI at 33.3 nM was 193 MFI.

Q: For “CD112 A112V IgV-Fc (from UniProt Q92692 32-158) (Fc fusion)”, which MFI at 20 nM (CD96) is on record?
A: Its MFI at 20 nM is 1210 MFI and 1180 MFI.

Q: For “CD112-IgV (from UniProt Q92692 32-158) (Fc fusion)”, which MFI at 25 nM (CD112R [2]) is on record?
A: The MFI at 25 nM was 17800 MFI.

Q: And the MFI at 25 nM (CD226)?
A: Its MFI at 25 nM is 824 MFI.

Q: Fc Control was tested. Which MFI at 20 nM [3] did it give?
A: Its MFI at 20 nM is 132 MFI.

Q: And the MFI at 20 nM [4]?
A: Its MFI at 20 nM is 59 MFI.

Q: Fc only was tested. Which MFI at 66.6 nM [5] did it give?
A: The MFI at 66.6 nM was 5960 MFI.

Q: And the MFI at 22.2 nM [6]?
A: Its MFI at 22.2 nM is 4740 MFI.

Q: And the MFI at 66.6 nM [7]?
A: Its MFI at 66.6 nM is 2590 MFI.

Q: Which Jurkat/IL2 + CHO/OKT3/PD-L1 reporter assay, RLU at CD80 Conc 5.0 nM (PD-L1 (human) [8]) does the source give for “WT CD80 ECD-Fc (from UniProt P33681 35-242) (Fc fusion)” here?
A: Its Jurkat/IL2 + CHO/OKT3/PD-L1 reporter assay, RLU at CD80 Conc 5.0 nM is 521 RLU.

Q: And the MFI at 33.3 nM (PD-L1 (human) [9])?
A: The MFI at 33.3 nM was 68 MFI.

Q: What about the MFI at 33.3 nM (PD-L1 (human) [10]) of the same substance?
A: Its MFI at 33.3 nM is 52 MFI.

Q: How did the Fold ↑ to WT ECD (TIGIT [11]) turn out when “Wildtype (CD155 entry without mutations among the variant rows of Table 20B) (from UniProt P15151 21-142) (Fc fusion)” was run?
A: The Fold ↑ to WT ECD was 0 fold.

Q: And the MFI at 100 nM (TIGIT [12])?
A: The MFI at 100 nM was 1960 MFI and 2180 MFI.

Q: Which MFI at 33.3 nM (CD28 (human)) does the source give for deltaE10-A98 CD80 IgV-Fc (Fc fusion) here?
A: The MFI at 33.3 nM was 15 MFI.

Q: What about the MFI at 33.3 nM (PD-L1 (human) [9]) of the same substance?
A: The MFI at 33.3 nM was 45 MFI.

Q: And the MFI at 33.3 nM (human CTLA-4 (human) [13])?
A: Its MFI at 33.3 nM is 125 MFI.

Q: With “variant CD80 IgV-Fc K36R/G78A (from UniProt P33681 35-141) (Fc fusion)” as the substance, how does the MFI at 66.6 nM [14] read?
A: The MFI at 66.6 nM was 11900 MFI.

Q: “variant CD80 IgV-Fc R29H/E35D/M43V/M47I/I49V (from UniProt P33681 35-141) (Fc fusion)” was tested. Which MFI at 33.3 nM [15] did it give?
A: The MFI at 33.3 nM was 4690 MFI.

Q: For “variant CD112 IgV-Fc R12W/A46T/K66M/Q79R/N106I/T113A/S118F (from UniProt Q92692 32-158) (Fc fusion)”, which MFI at 100 nM (CD112R [16]) is on record?
A: Its MFI at 100 nM is 1660 MFI.

Q: Which MFI at 20 nM [17] does the source give for “variant PD-L1 G15A/I36T/V129D/R195G Fc fusion (from UniProt Q9NZQ7 19-238)” here?
A: Its MFI at 20 nM is 125 MFI.

Q: For “wild-type CD80 ECD-Fc (inert), Example 15 (from UniProt P33681 35-242) (Fc fusion)”, which MFI at 33.3 nM (PD-L1 (human) [18]) is on record?
A: Its MFI at 33.3 nM is 161 MFI.

Q: What about the RLU, Jurkat/IL2 + CHO/OKT3/PD-L1 Reporter Assay, CD80 Conc 5.0 nM (PD-L1 (human) [8]) of the same substance?
A: Its RLU, Jurkat/IL2 + CHO/OKT3/PD-L1 Reporter Assay, CD80 Conc 5.0 nM is 159 RLU.
